Test results: patent publication US20220119490A1 (Genentech, published 2022)

Experiments:
UNC5A = target: T1, UNC5A (human, UniProt Q6ZN44); experiment: cell surface interaction assay: query ECD tetramerised with fluorescent streptavidin on transfected cells, immunofluorescence
T1 construct: expressed on cells; also called UNC5A expressed on cells
T1 sequence (cell-surface-expressed binding partner, looked up): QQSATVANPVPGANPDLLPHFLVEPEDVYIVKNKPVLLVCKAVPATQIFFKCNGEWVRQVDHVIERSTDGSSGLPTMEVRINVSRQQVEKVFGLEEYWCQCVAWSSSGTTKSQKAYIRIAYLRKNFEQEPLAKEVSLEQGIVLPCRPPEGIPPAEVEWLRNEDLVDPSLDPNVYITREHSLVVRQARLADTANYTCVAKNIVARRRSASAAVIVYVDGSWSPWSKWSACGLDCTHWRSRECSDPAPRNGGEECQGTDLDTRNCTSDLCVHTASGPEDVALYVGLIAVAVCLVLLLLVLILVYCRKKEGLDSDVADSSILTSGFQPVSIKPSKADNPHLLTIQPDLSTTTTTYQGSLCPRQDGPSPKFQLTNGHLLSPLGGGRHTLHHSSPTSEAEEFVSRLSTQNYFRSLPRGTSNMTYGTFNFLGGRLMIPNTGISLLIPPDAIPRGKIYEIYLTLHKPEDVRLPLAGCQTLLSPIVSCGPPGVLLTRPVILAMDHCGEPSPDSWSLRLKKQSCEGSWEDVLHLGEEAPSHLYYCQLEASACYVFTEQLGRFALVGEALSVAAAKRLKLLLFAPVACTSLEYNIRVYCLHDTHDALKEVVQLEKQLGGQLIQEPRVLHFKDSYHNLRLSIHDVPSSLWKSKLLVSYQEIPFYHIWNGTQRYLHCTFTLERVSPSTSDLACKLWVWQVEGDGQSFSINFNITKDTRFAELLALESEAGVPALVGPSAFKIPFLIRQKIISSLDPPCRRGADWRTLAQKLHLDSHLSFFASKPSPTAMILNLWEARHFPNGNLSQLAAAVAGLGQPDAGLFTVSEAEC

UNC5D = target: T2, UNC5D (human, UniProt Q6UXZ4); experiment: as above
T2 construct: expressed on cells; also called UNC5D expressed on cells
T2 sequence (cell-surface-expressed binding partner, looked up): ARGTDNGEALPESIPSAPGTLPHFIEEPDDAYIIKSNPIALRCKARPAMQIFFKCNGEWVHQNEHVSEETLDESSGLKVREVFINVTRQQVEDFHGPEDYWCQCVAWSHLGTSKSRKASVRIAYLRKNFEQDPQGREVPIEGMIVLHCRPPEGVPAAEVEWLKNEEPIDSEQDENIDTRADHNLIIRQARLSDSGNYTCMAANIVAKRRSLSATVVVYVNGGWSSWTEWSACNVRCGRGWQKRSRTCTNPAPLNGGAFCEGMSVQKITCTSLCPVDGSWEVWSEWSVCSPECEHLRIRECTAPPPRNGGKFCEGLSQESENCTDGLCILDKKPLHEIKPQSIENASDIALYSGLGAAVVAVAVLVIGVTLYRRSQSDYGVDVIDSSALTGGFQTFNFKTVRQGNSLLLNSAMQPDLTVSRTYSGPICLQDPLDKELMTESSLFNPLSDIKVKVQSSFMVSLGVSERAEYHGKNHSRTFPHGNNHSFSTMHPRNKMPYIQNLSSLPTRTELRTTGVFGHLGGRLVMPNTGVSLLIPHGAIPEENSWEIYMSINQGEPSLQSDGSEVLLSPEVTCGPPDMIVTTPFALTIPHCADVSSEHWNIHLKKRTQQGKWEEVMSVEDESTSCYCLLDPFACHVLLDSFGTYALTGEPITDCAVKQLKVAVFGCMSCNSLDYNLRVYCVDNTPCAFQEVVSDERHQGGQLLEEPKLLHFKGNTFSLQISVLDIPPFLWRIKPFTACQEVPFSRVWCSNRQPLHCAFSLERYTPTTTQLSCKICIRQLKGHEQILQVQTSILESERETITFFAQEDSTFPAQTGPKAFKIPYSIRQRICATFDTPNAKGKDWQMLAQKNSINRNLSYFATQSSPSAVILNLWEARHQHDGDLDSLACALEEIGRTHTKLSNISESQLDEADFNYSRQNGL

B1: FLRT3 (receptor, human, UniProt Q9NZU0 29-528, looked up)
soluble query ectodomain: KSCPSVCRCDAGFIYCNDRFLTSIPTGIPEDATTLYLQNNQINNAGIPSDLKNLLKVERIYLYHNSLDEFPTNLPKYVKELHLQENNIRTITYDSLSKIPYLEELHLDDNSVSAVSIEEGAFRDSNYLRLLFLSRNHLSTIPWGLPRTIEELRLDDNRISTISSPSLQGLTSLKRLVLDGNLLNNHGLGDKVFFNLVNLTELSLVRNSLTAAPVNLPGTNLRKLYLQDNHINRVPPNAFSYLRQLYRLDMSNNNLSNLPQGIFDDLDNITQLILRNNPWYCGCKMKWVRDWLQSLPVKVNVRGLMCQAPEKVRGMAIKDLNAELFDCKDSGIVSTIQITTAIPNTVYPAQGQWPAPVTKQPDIKNPKLTKDHQTTGSPSRKTITITVKSVTSDTIHISWKLALPMTALRLSWLKLGHSPAFGSITETIVTGERSEYLVTALEPDSPYKVCMVPMETSNLYLFDETPVCIETETAPLRMYNPTTTLNREQEKEPYKNPNLP
modifications: biotinylated
notes: extracellular domain; also called soluble query
B1: binds (UNC5A); binds (UNC5D).
